Measurements: patent US20030121063

Legend:
[1] = target: L1 ENp (L1 ORF2 endonuclease domain) (Homo sapiens) (UniProt O00370); test: cleavage_in_vitro; details: turnover number; Mg greatly preferred over Mn
[2] = system: L1 ENp E43A E43A (Homo sapiens); test: cleavage_in_vitro; details: slightly leaky; 5 mM MgCl2

UniProt O00370, sequence (O00370 1-239): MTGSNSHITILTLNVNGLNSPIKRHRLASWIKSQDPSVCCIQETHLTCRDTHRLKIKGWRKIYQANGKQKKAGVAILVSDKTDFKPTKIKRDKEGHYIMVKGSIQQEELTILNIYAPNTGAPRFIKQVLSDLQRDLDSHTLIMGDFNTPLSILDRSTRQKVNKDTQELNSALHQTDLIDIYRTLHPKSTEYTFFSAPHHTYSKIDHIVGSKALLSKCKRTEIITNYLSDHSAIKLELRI

pBS plasmid, native
activity (phosphodiester bond cleavages per hour) [1]: 2 | cleavage activity (fold less than wild type) [2]: 20
